In this assay the target is GAL4-Nef (HIV-1 Nef fused to the GAL4 DNA-binding domain) (HIV-1). Nature of the assay: two-hybrid.

Substance “VP16-eEF1A (eEF1A fused to the VP16 activation domain) (from UniProt P68104 1-462) (natural protein)” had a relative luciferase expression of 1850 r.l.u.
